The chains are these.
B1: Azoarcus group I ribozyme (parent)
chain: GUGCCUUGCGCCGGGAAACCACGCAAGGGAUGGUGUCAAAUUCGGCGAAACCUAAGCGCCCGCCCGGGCGUAUGGCAACGCCGAGCCAAGCUUCGGCGCCUGCGCCGAUGAAGGUGUAGAGACUAGACGGCACCCACCUAAGGCAAACGCUAUGGUGAAGGCAUAGUCCAGGGAGUGGCGAAAGUCACACAAACCGG

The variants in the series derive from B1. As to the kind of experiment: reverse-splicing fitness (ratio to wild type); higher = more active; in vitro selection; Mg2+ level not given. In short, it runs like this: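 An in vitro group I ribozyme library with randomized positions was T7-transcribed and gel-purified. In triplicate, 10 pmol RNA in EPPS pH 7.5 was reacted with 50 pmoles of a 30-nt RNA substrate for 1 h at 37 °C across several added MgCl2 levels (1–48 mM), then stopped with EDTA. Products were reverse transcribed from a substrate-complementary primer, PCR-amplified and sequenced (HiSeq 4000). Fitness is a variant's read proportion after selection over that before, normalised to wild type.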
For C82G A111G A120U A145U C150G U176G, the reverse-splicing fitness worked out at 0.00264.
For C82G A111G A120U A145U C150G U176A, the reverse-splicing fitness was found to be 0.00457.
The same measure for C82G A111G A120U A145G C150G C169U U176C: 0.009; for C82G A111G A120U A145G C150G C169U U176A: 0.00708.
As for C82G A111G A120U A145G C150G C169U U176G, the figure is 0.00375; as for C82G A111G A145C C150A C169U U176A, 0.0123; as for C82G A111G A145C C150A C169U U176G, 0.00582.
As to C82G A111G A145C C150A C169U U176C, the reverse-splicing fitness was 0.00961.
As for C82G A111G A120U A145U C150A C169G, the reverse-splicing fitness came to 0.0027.
As for C82G A111G A120U A145U C150A C169U, the figure is 0.0024.
The same measure for C82G A111G A120U A145U C150A C169A: 0.00193; for C82G A111G A145C C150A C169G U176G: 0.00577; for C82G A111G A145C C150A C169G U176A: 0.0228.
As for C82G A111G A145C C150A C169G U176C, the figure is 0.0122; as for C82G A111G A145G C150G U176A, 0.0145; as for C82G A111G A145G C150G U176G, 0.00812.
C82G A111G A145G C150G U176C: the reverse-splicing fitness was determined as 0.026.
As for C82G A111G A145U C150A C169A, the figure is 0.00827; as for C82G A111G A145U C150A C169G, 0.00845; as for C82G A111G A145U C150A C169U, 0.00982.
As for C82G A111G A120U A145G C150G U176A, the figure is 0.00561.
Take C82G A111G A120U A145G C150G U176G: the reverse-splicing fitness is 0.00375.
With C82G A111G A120U A145G C150G U176C, the reverse-splicing fitness stood at 0.00834.
The same measure for C82G A111G A120U A145G C150G C169A U176G: 0.00448; for C82G A111G A120U A145G C150G C169A U176C: 0.0099; for C82G A111G A120U A145G C150G C169A U176A: 0.0115.
As for C82G A111G A145C C150A C169A, the reverse-splicing fitness stood at 0.00763.
As for C82G A111G A145C C150A C169U, the figure is 0.0097.
As for C82G A111G A145C C150A C169G, the figure is 0.00798; as for C82G A111G A120U A145U C169A U176A, 0.00206; as for C82G A111G A120U A145U C169A U176G, 0.0018.
C82G A111G A120U A145U C169A U176C: the reverse-splicing fitness was 0.00207.
The same measure for C82G A111G A120U A145G C169U U176C: 0.00485; for C82G A111G A120U A145G C169U U176A: 0.00415; for C82G A111G A120U A145G C169U U176G: 0.00164.
As to C82G A111G A145C C150U C169A U176G, the reverse-splicing fitness stood at 0.00694.
The same measure for C82G A111G A145C C150U C169A U176C: 0.00686; for C82G A111G A145C C150U C169A U176A: 0.0123.
As for C82G A111G A120U A145G C169A U176C, the figure is 0.00535; as for C82G A111G A120U A145G C169A U176A, 0.00574; as for C82G A111G A120U A145G C169A U176G, 0.00176.
As for C82G A111G A120U A145U C150G C169G U176A, the figure is 0.0025; as for C82G A111G A120U A145U C150G C169G U176G, 0.00197.
C82G A111G A120U A145U C150G C169G U176C: the reverse-splicing fitness was determined as 0.00256.
The same measure for C82G A111G A120U A145U C150A C169U U176A: 0.00305; for C82G A111G A120U A145U C150A C169U U176C: 0.0029; for C82G A111G A120U A145U C150A C169U U176G: 0.00215.
The same measure for C82G A111G A120U A145U C169U U176A: 0.00226.
The same measure for C82G A111G A120U A145U C169U U176C: 0.0031; for C82G A111G A120U A145U C169U U176G: 0.00199; for C82G A111G A145U C150A U176C: 0.0339.
For C82G A111G A145U C150A U176A, the reverse-splicing fitness turned out to be 0.03.
As for C82G A111G A145U C150A U176G, the figure is 0.0136; as for C82G A111G A120U A145U C150U U176A, 0.0117.
The same measure for C82G A111G A120U A145U C150U U176C: 0.0184; for C82G A111G A120U A145U C150U U176G: 0.00444.
With C82G A111G A145U C150G U176C, the reverse-splicing fitness is 0.0287.
The same measure for C82G A111G A145U C150G U176G: 0.00715; for C82G A111G A145U C150G U176A: 0.0185.
As for C82G A111G A145C C150G C169G, the figure is 0.00758.
On to C82G A111G A145C C150G C169U, for which the reverse-splicing fitness came to 0.00923.
As for C82G A111G A145C C150G C169A, the figure is 0.00828.
As for C82G A111G A120U A145U U176A, the figure is 0.0168.
The same measure for C82G A111G A120U A145U U176G: 0.00582; for C82G A111G A120U A145U U176C: 0.0296.
As for C82G A111G A145U C150G C169A, the reverse-splicing fitness was 0.0092.
As for C82G A111G A145U C150G C169G, the figure is 0.00774; as for C82G A111G A145U C150G C169U, 0.00934; as for C82G A111G A120U A145G U176A, 0.0143.
The same measure for C82G A111G A120U A145G U176G: 0.00435.
As for C82G A111G A120U A145G U176C, the figure is 0.0283.
C82G A111G A145G C150G C169G U176G: the reverse-splicing fitness turned out to be 0.0064.
The same measure for C82G A111G A145G C150G C169G U176A: 0.011.
The same measure for C82G A111G A145G C150G C169G U176C: 0.0126.
As for C82G A111G A145G C150G C169A U176G, the figure is 0.0094; as for C82G A111G A145G C150G C169A U176A, 0.015; as for C82G A111G A145G C150G C169A U176C, 0.0146.
C82G A111G A145G C150G C169U U176A: the reverse-splicing fitness turned out to be 0.012.
The same measure for C82G A111G A145G C150G C169U U176G: 0.00803; for C82G A111G A145G C150G C169U U176C: 0.0131.
The same measure for C82G A111G A120U C169A U176C: 0.00309; for C82G A111G A120U C169A U176G: 0.00169; for C82G A111G A120U C169A U176A: 0.00371.
